Reference: paper PMC9482650, “Quantitative fragmentomics allow affinity mapping of interactomes” (Nature Communications, 2022)
One block for each binder: values may come before it.

Experiments:
Assay in all cases: holdup assay
Set-up in all cases: key: below the threshold = too weak to quantify, mostly under pKd 3.1 to 4
NHERF4_1, Q86UT5-2 = target: NHERF4_1, Q86UT5-2
CARD11, Q9BXL7 = target: T1, CARD11, Q9BXL7
T1 sequence (Q9BXL7 662-765, limits assumed, looked up): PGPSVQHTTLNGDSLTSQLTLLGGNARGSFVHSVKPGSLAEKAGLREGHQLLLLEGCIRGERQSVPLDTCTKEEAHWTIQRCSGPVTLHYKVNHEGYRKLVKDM

MAGI3_2, Q5TCQ9 = target: MAGI3_2, Q5TCQ9
HTRA4, P83105 = target: T2, HTRA4, P83105
T2 sequence (P83105 378-476, limits assumed, looked up): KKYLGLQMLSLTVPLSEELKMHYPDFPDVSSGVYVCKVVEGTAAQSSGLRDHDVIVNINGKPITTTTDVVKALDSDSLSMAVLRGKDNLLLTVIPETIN

GRIP2_3, Q9C0E4 = target: GRIP2_3, Q9C0E4
DLG4_2, P78352 = target: DLG4_2, P78352
NHERF2_2, Q15599 = target: NHERF2_2, Q15599
GRASP, Q7Z6J2 = target: GRASP, Q7Z6J2
MPDZ_5, O75970 = target: T3, MPDZ_5, O75970
T3 sequence (O75970 695-796, limits assumed, looked up): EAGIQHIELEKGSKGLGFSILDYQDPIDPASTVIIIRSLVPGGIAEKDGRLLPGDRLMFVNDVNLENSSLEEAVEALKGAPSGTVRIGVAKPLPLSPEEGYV

PICK1, Q9NRD5 = target: PICK1, Q9NRD5
TJP1_3, Q07157 = target: TJP1_3, Q07157
DLG4_3, P78352 = target: DLG4_3, P78352
DLG1_2, Q12959 = target: DLG1_2, Q12959
HTRA1, Q92743 = target: HTRA1, Q92743
FRMPD1, Q5SYB0 = target: T4, FRMPD1, Q5SYB0
T4 sequence (Q5SYB0 52-145, limits assumed, looked up): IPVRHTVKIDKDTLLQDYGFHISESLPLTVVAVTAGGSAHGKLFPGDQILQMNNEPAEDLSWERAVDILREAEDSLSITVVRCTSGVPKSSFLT

SNTB1, Q13884 = target: T5, SNTB1, Q13884
T5 sequence (Q13884 107-205, limits assumed, looked up): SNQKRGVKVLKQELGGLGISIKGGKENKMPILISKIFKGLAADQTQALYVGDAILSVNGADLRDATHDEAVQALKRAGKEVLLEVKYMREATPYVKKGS

SIPA1L2, Q9P2F8 = target: T6, SIPA1L2, Q9P2F8
T6 sequence (Q9P2F8 945-1036, limits assumed, looked up): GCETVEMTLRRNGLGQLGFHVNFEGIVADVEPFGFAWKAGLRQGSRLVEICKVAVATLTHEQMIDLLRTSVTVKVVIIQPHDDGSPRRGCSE

LRRC7, Q96NW7 = target: T7, LRRC7, Q96NW7
T7 sequence (Q96NW7 1440-1537, limits assumed, looked up): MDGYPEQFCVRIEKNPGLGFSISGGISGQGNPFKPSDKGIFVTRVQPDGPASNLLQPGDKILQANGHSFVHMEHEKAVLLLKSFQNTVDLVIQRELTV

SNTG2, Q9NY99 = target: T8, SNTG2, Q9NY99
T8 sequence (Q9NY99 68-166, limits assumed, looked up): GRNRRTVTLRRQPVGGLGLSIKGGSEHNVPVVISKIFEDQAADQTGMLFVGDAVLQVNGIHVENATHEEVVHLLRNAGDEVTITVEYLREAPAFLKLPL

Inadl_1, Q8NI35 = target: Inadl_1, Q8NI35
LAP2, Q96RT1 = target: LAP2, Q96RT1
MPP2, Q14168 = target: T9, MPP2, Q14168
T9 sequence (Q14168 180-250, limits assumed, looked up): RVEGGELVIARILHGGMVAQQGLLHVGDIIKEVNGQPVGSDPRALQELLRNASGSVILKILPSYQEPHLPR

FRMPD2_2, Q68DX3 = target: FRMPD2_2, Q68DX3
Inadl_5, Q8NI35 = target: Inadl_5, Q8NI35
PTPN13_1, Q12923 = target: T10, PTPN13_1, Q12923
T10 sequence (Q12923 1088-1188, limits assumed, looked up): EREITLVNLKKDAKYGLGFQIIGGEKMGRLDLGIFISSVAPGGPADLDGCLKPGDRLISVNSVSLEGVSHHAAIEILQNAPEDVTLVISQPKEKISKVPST

NHERF3_4, Q5T2W1 = target: T11, NHERF3_4, Q5T2W1
T11 sequence (Q5T2W1 373-468, limits assumed, looked up): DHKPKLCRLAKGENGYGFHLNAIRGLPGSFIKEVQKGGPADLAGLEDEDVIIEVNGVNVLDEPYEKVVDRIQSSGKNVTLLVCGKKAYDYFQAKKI

[1] = plain residues with an end cap or a label only (N-terminal biotin on a linker: ado-ado)
[2] = modified: phospho on S at position -3 from the C-terminal residue
[3] = modified: acetyl on K at position -1 from the C-terminal residue

Sequence of PICK1, Q9NRD5 (Q9NRD5 17-115): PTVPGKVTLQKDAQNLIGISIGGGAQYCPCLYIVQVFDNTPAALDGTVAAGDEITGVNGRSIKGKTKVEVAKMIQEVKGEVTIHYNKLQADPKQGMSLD
Sequence of GRIP2_3, Q9C0E4 (Q9C0E4 238-339): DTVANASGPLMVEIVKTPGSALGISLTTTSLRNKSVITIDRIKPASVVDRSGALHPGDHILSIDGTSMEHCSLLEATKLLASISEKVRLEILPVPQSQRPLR
Sequence of MAGI3_2, Q5TCQ9 (Q5TCQ9 398-503): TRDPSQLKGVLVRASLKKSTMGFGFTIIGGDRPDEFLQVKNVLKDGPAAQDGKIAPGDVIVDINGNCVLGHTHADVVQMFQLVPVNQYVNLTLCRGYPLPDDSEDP
Sequence of DLG1_2, Q12959 (Q12959 314-412): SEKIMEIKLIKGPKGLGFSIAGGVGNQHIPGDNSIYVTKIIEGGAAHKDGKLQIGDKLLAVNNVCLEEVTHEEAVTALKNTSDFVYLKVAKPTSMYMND
Sequence of NHERF2_2, Q15599 (Q15599 142-238): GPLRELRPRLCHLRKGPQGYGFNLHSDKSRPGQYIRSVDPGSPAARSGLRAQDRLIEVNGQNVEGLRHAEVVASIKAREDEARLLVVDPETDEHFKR
Sequence of Inadl_5, Q8NI35 (Q8NI35 673-780): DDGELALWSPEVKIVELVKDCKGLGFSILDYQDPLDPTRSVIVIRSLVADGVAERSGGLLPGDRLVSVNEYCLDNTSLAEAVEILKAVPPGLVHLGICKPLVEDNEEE
Sequence of NHERF4_1, Q86UT5-2 (Q86UT5 other isoform, or with tags, fused parts or gaps): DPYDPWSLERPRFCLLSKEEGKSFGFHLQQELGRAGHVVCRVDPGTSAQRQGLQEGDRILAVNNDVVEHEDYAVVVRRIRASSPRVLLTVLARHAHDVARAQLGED
Sequence of LAP2, Q96RT1 (Q96RT1 other isoform, or with tags, fused parts or gaps): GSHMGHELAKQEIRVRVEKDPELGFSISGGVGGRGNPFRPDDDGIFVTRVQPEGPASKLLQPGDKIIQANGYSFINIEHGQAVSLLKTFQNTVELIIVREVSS
Sequence of DLG4_2, P78352 (P78352 155-259): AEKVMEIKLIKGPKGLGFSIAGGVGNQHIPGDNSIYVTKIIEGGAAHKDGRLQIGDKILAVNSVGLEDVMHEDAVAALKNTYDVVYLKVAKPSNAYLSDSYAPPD
Sequence of DLG4_3, P78352 (P78352 306-403): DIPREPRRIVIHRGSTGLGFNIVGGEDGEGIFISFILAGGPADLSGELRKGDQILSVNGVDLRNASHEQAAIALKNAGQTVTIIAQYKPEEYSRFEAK
Sequence of Inadl_1, Q8NI35 (Q8NI35 113-229): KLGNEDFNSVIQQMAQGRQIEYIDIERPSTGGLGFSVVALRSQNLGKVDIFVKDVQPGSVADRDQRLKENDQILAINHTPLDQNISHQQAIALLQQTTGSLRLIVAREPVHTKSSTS
Sequence of TJP1_3, Q07157 (Q07157 416-512): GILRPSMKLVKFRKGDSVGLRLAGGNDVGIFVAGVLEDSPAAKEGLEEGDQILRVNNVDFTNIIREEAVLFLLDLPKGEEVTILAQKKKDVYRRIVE
Sequence of GRASP, Q7Z6J2 (Q7Z6J2 96-193): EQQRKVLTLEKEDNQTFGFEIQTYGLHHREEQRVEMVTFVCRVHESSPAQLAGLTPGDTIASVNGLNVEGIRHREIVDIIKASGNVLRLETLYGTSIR
Sequence of HTRA1, Q92743 (Q92743 360-477): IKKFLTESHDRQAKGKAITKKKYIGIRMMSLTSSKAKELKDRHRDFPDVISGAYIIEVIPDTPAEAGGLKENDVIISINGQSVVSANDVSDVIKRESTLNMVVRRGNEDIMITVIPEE
Sequence of FRMPD2_2, Q68DX3 (Q68DX3 944-1038): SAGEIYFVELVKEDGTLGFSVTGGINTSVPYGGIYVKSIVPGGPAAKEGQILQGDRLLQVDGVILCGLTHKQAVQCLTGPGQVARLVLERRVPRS

pKd (NHERF4_1, Q86UT5-2; [1]): below the threshold
pKd (CARD11, Q9BXL7; [1]): below the threshold
pKd (MAGI3_2, Q5TCQ9; [1]): below the threshold
pKd (HTRA4, P83105; [1]): 3.62
pKd (GRIP2_3, Q9C0E4; [1]): below the threshold
pKd (DLG4_2, P78352; [1]): below the threshold
pKd (NHERF2_2, Q15599; [1]): below the threshold
pKd (GRASP, Q7Z6J2; [1]): below the threshold
pKd (MPDZ_5, O75970; [1]): below the threshold
pKd (PICK1, Q9NRD5; [1]): below the threshold
pKd (TJP1_3, Q07157; [1]): below the threshold
pKd (DLG4_3, P78352; [1]): below the threshold
pKd (DLG1_2, Q12959; [1]): below the threshold
pKd (HTRA1, Q92743; [1]): below the threshold
pKd (FRMPD1, Q5SYB0; [1]): below the threshold
pKd (SNTB1, Q13884; [1]): below the threshold
pKd (SIPA1L2, Q9P2F8; [1]): below the threshold
pKd (LRRC7, Q96NW7; [1]): below the threshold
pKd (SNTG2, Q9NY99; [1]): below the threshold
pKd (Inadl_1, Q8NI35; [1]): below the threshold
pKd (LAP2, Q96RT1; [1]): below the threshold
pKd (MPP2, Q14168; [1]): below the threshold
pKd (FRMPD2_2, Q68DX3; [1]): below the threshold
pKd (Inadl_5, Q8NI35; [1]): below the threshold
pKd (PTPN13_1, Q12923; [1]): below the threshold
pKd (NHERF3_4, Q5T2W1; [1]): below the threshold
Binder: RALRASESGI [ADGRE5, P48960]

pKd (NHERF4_1, Q86UT5-2; [1]): 3.99
pKd (CARD11, Q9BXL7; [1]): below the threshold
pKd (MAGI3_2, Q5TCQ9; [1]): below the threshold
pKd (HTRA4, P83105; [1]): below the threshold
pKd (GRIP2_3, Q9C0E4; [1]): below the threshold
pKd (DLG4_2, P78352; [1]): 3.64
pKd (NHERF2_2, Q15599; [1]): 3.62
pKd (GRASP, Q7Z6J2; [1]): 4.6
pKd (MPDZ_5, O75970; [1]): below the threshold
pKd (PICK1, Q9NRD5; [1]): below the threshold
pKd (TJP1_3, Q07157; [1]): 3.61
pKd (DLG4_3, P78352; [1]): 3.55
pKd (DLG1_2, Q12959; [1]): below the threshold
pKd (HTRA1, Q92743; [1]): 3.74
pKd (FRMPD1, Q5SYB0; [1]): below the threshold
pKd (SNTB1, Q13884; [1]): below the threshold
pKd (SIPA1L2, Q9P2F8; [1]): below the threshold
pKd (LRRC7, Q96NW7; [1]): below the threshold
pKd (SNTG2, Q9NY99; [1]): below the threshold
pKd (Inadl_1, Q8NI35; [1]): below the threshold
pKd (LAP2, Q96RT1; [1]): below the threshold
pKd (MPP2, Q14168; [1]): below the threshold
pKd (FRMPD2_2, Q68DX3; [1]): below the threshold
pKd (Inadl_5, Q8NI35; [1]): below the threshold
pKd (PTPN13_1, Q12923; [1]): below the threshold
pKd (NHERF3_4, Q5T2W1; [1]): below the threshold
Binder: TMQMSLKDLL [GLA, P06280]

pKd (NHERF4_1, Q86UT5-2; [2]): below the threshold
pKd (CARD11, Q9BXL7; [2]): below the threshold
pKd (MAGI3_2, Q5TCQ9; [2]): 4.1
pKd (HTRA4, P83105; [2]): 3.72
pKd (GRIP2_3, Q9C0E4; [2]): below the threshold
pKd (DLG4_2, P78352; [2]): below the threshold
pKd (NHERF2_2, Q15599; [2]): 3.68
pKd (GRASP, Q7Z6J2; [2]): below the threshold
pKd (MPDZ_5, O75970; [2]): below the threshold
pKd (PICK1, Q9NRD5; [2]): below the threshold
pKd (TJP1_3, Q07157; [2]): below the threshold
pKd (DLG4_3, P78352; [2]): below the threshold
pKd (DLG1_2, Q12959; [2]): 3.61
pKd (HTRA1, Q92743; [2]): below the threshold
pKd (FRMPD1, Q5SYB0; [2]): below the threshold
pKd (SNTB1, Q13884; [2]): 4.39
pKd (SIPA1L2, Q9P2F8; [2]): below the threshold
pKd (LRRC7, Q96NW7; [2]): below the threshold
pKd (SNTG2, Q9NY99; [2]): 4.76
pKd (Inadl_1, Q8NI35; [2]): 3.66
pKd (LAP2, Q96RT1; [2]): below the threshold
pKd (MPP2, Q14168; [2]): below the threshold
pKd (FRMPD2_2, Q68DX3; [2]): below the threshold
pKd (Inadl_5, Q8NI35; [2]): below the threshold
pKd (PTPN13_1, Q12923; [2]): below the threshold
pKd (NHERF3_4, Q5T2W1; [2]): below the threshold
Binder: RRVRKLPSTTL [RPS6KA1_-3P, Q15418]

pKd (NHERF4_1, Q86UT5-2; [1]): below the threshold
pKd (CARD11, Q9BXL7; [1]): below the threshold
pKd (MAGI3_2, Q5TCQ9; [1]): below the threshold
pKd (HTRA4, P83105; [1]): below the threshold
pKd (GRIP2_3, Q9C0E4; [1]): below the threshold
pKd (DLG4_2, P78352; [1]): below the threshold
pKd (NHERF2_2, Q15599; [1]): below the threshold
pKd (GRASP, Q7Z6J2; [1]): below the threshold
pKd (MPDZ_5, O75970; [1]): below the threshold
pKd (PICK1, Q9NRD5; [1]): below the threshold
pKd (TJP1_3, Q07157; [1]): below the threshold
pKd (DLG4_3, P78352; [1]): below the threshold
pKd (DLG1_2, Q12959; [1]): below the threshold
pKd (HTRA1, Q92743; [1]): 3.5
pKd (FRMPD1, Q5SYB0; [1]): below the threshold
pKd (SNTB1, Q13884; [1]): below the threshold
pKd (SIPA1L2, Q9P2F8; [1]): below the threshold
pKd (LRRC7, Q96NW7; [1]): below the threshold
pKd (SNTG2, Q9NY99; [1]): below the threshold
pKd (Inadl_1, Q8NI35; [1]): below the threshold
pKd (LAP2, Q96RT1; [1]): below the threshold
pKd (MPP2, Q14168; [1]): below the threshold
pKd (FRMPD2_2, Q68DX3; [1]): below the threshold
pKd (Inadl_5, Q8NI35; [1]): below the threshold
pKd (PTPN13_1, Q12923; [1]): below the threshold
pKd (NHERF3_4, Q5T2W1; [1]): below the threshold
Binder: LETREPTNTL [GRIP1, Q9Y3R0]

pKd (NHERF4_1, Q86UT5-2; [3]): below the threshold
pKd (CARD11, Q9BXL7; [3]): below the threshold
pKd (MAGI3_2, Q5TCQ9; [3]): 4.55
pKd (HTRA4, P83105; [3]): 3.68
pKd (GRIP2_3, Q9C0E4; [3]): below the threshold
pKd (DLG4_2, P78352; [3]): 4.58
pKd (NHERF2_2, Q15599; [3]): 3.77
pKd (GRASP, Q7Z6J2; [3]): 5.32
pKd (MPDZ_5, O75970; [3]): below the threshold
pKd (PICK1, Q9NRD5; [3]): 3.75
pKd (TJP1_3, Q07157; [3]): below the threshold
pKd (DLG4_3, P78352; [3]): below the threshold
pKd (DLG1_2, Q12959; [3]): 4.67
pKd (HTRA1, Q92743; [3]): 5.03
pKd (FRMPD1, Q5SYB0; [3]): below the threshold
pKd (SNTB1, Q13884; [3]): 4.79
pKd (SIPA1L2, Q9P2F8; [3]): below the threshold
pKd (LRRC7, Q96NW7; [3]): below the threshold
pKd (SNTG2, Q9NY99; [3]): 3.78
pKd (Inadl_1, Q8NI35; [3]): 3.85
pKd (LAP2, Q96RT1; [3]): 3.93
pKd (MPP2, Q14168; [3]): below the threshold
pKd (FRMPD2_2, Q68DX3; [3]): 4.58
pKd (Inadl_5, Q8NI35; [3]): below the threshold
pKd (PTPN13_1, Q12923; [3]): below the threshold
pKd (NHERF3_4, Q5T2W1; [3]): below the threshold
Binder: DEDQHTQITKV [PTEN_Ac, P60484]
